# Data reported in article PMC11582362 (Nature Communications, 2023).
# What was measured:
# [1] = target: the molecule itself; assay: SEC-SAXS; BioSEC-3 column, 15 °C, 0.3 mL/min, 20 mM Na-HEPES pH 7.3, 55 mM KOAc, 10 mM NaCl, 1 mM TCEP; purification tags cleaved off; SWING beamline, SOLEIL
# [2] = target: the molecule itself; assay: SEC-MALS; SEC-MALLS, BioSEC-3 column, 25 °C, 0.4 mL/min, 20 mM Na-phosphate pH 7.0, 100 mM NaCl, 2 mM 2-mercaptoethanol; His6-tag kept
Protein,stoichiometry N [1],stoichiometry N [2]
"ADAR1-dsRBD3 dsRBD3-mid construct (residues 708-801), tag cleaved (domain or fragment, human, UniProt P55265 708-801, looked up, human ADAR1, third dsRBD, residues 708-801 (Uniprot entry P55265); Modified pET28a with TEV site; also called dsRBD-mid; source: E. coli BL21(DE3) Codon-plus (RIL), purified (Ni-NTA, TEV cleavage, SEC); not shown: His6, N-terminal, cleaved) MMPNKVRKIGELVRYLNTNPVGGLLEYARSHGFAAEFKLVDQSGPPHEPKFVYQAKVGGRWFPAVCAHSKKQGKQEAADAALRVLIGENEKAER",2,
"ADAR1-dsRBD3 (residues 708-801) with uncleavable His6-tag, wild type (domain or fragment, human, UniProt P55265 708-801, looked up, human ADAR1, third dsRBD, residues 708-801 (Uniprot entry P55265); pET28a between NdeI and XhoI; also called wild-type ADAR1-dsRBD3; source: E. coli BL21(DE3) Codon-plus (RIL), purified (Ni-NTA, SEC); not shown: His6, N-terminal, kept) MMPNKVRKIGELVRYLNTNPVGGLLEYARSHGFAAEFKLVDQSGPPHEPKFVYQAKVGGRWFPAVCAHSKKQGKQEAADAALRVLIGENEKAER",,2
"ADAR1-dsRBD3 dsRBD3-short construct (residues 716-797) (domain or fragment, human, UniProt P55265 716-797, looked up, human ADAR1, folded part of the third dsRBD, residues 716-797 (Uniprot entry P55265); Modified pET28a with TEV site; also called dsRBD-short; ADAR1-dsRBD3 (crystal structures); source: E. coli BL21(DE3) Codon-plus (RIL), purified (Ni-NTA, TEV cleavage, SEC); not shown: His6, N-terminal, cleaved) IGELVRYLNTNPVGGLLEYARSHGFAAEFKLVDQSGPPHEPKFVYQAKVGGRWFPAVCAHSKKQGKQEAADAALRVLIGENE",2,
"ADAR1-dsRBD3 dsRBD3-long construct (residues 688-817) (domain or fragment, human, UniProt P55265 688-817, looked up, human ADAR1, third dsRBD with flanking regions, residues 688-817 (Uniprot entry P55265); Modified pET28a with TEV site; source: E. coli BL21(DE3) Codon-plus (RIL), purified (Ni-NTA, TEV cleavage, SEC); not shown: His6, N-terminal, cleaved) MASDNQPEGMISESLDNLESMMPNKVRKIGELVRYLNTNPVGGLLEYARSHGFAAEFKLVDQSGPPHEPKFVYQAKVGGRWFPAVCAHSKKQGKQEAADAALRVLIGENEKAERMGFTEVTPVTGASLRR",2,
